Values of other authors in PMC5874815.

Molecular target: EGFR (Homo sapiens) (UniProt P00533)

In the case of EGF (from UniProt P01133), the Kd is given as 2 nM.
